Test results published in patent US20160108110A1 (Novartis, published 2016).
Where a chain is given by its changes, count along the chain named.

T1: Human ANGPTL4(26-406)-FLAG-His6-Avi (human, UniProt Q9BY76 24-406, biotin on the C-terminal Avi tag in the biotinylated preparations (immobilised form in SET, ELISA and Octet))
T1 construct: also called full-length human ANGPTL4; hANGPTL4
T1 sequence: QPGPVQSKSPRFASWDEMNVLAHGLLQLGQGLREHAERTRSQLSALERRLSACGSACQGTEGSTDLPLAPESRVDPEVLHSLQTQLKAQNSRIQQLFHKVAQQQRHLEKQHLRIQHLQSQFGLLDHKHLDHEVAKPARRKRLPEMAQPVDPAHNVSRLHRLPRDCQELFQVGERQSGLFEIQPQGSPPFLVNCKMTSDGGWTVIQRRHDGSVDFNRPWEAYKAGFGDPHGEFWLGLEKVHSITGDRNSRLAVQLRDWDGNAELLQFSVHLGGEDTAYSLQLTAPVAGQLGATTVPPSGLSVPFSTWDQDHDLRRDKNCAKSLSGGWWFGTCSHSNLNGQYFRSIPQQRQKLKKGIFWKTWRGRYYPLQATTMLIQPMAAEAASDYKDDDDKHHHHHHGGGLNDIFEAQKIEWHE

T2: Human ANGPTL3(17-460)-FLAG-His-Avi (human, UniProt Q9Y5C1 17-460, biotin on the C-terminal Avi tag)
T2 construct: also called full length human ANGPTL3; hANGPTL3
T2 sequence: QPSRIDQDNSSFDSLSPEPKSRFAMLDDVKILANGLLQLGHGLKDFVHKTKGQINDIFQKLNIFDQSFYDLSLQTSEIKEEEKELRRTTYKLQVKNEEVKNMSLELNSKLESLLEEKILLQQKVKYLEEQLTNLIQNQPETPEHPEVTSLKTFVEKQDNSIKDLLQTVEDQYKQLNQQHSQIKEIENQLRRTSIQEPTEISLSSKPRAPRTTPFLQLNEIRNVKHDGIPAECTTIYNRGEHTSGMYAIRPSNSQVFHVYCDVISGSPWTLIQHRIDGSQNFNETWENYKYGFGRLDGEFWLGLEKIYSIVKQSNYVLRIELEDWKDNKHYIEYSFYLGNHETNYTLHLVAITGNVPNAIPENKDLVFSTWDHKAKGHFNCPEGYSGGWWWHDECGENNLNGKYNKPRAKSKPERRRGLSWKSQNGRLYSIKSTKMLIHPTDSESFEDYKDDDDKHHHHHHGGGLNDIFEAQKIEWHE

B1: MOR022761 (antibody, human IgG1, lambda, V domains shown)
VH: QVQLVQSGAEVKKPGSSVKVSCKASGGTFQSYAISWVRQAPGQGLEWMGGIIPLFGFANYAQKFQGRVTITADESTSTAYMELSSLRSEDTAVYYCARESYDPYAFDVWGQGTLVTVSS
VL: SYELTQPLSVSVALGQTARITCSGDNLGKYSASWYQQKPGQAPVLVIHQDNNRPSGIPERFSGSNSGNTATLTISRAQAGDEADYYCASRAHSMHVVFGGGTKLTVLG
notes: human IgG1
B2: MOR021795 (antibody, human IgG1, lambda, V domains shown)
VH: B1 VH with Q30N
VL: B1 VL with S1D, Y2I, L8P, A13S, L14P, R19S, R76G, A77T, G80E
notes: human IgG1
B3: MOR022762 (antibody, human IgG1, lambda, V domains shown)
VH: B1 VH with Q30S
VL: B1 VL
notes: human IgG1
B4: MOR021823 (antibody, human IgG1, kappa, V domains shown)
VH: QVQLLESGGGLVQPGGSLRLSCAASGFTFSSYYLHWVRQAPGKGLEWVSYISGDGSSTYYADSVKGRFTISRDNSKNTLYLQMNSLRAEDTAVYYCARERSYAHDHWGQGTLVTVSS
VL: DIQMTQSPSSLSASVGDRVTITCRASQDIYIDLNWYQQKPGKAPKLLIYAASKLQSGVPSRFSGSGSGTDFTLTISSLQPEDFATYYCQQGYFLPQTFGQGTKVEIKR
notes: human IgG1
B5: MOR021830 (antibody, human IgG1, kappa, V domains shown)
VH: QVQLLESGGGLVQPGGSLRLSCAASGFTFSSYWMHWVRQAPGKGLEWVSGISYDGSSTNYADSVKGRFTISRDNSKNTLYLQMNSLRAEDTAVYYCARDSYIYDLHWGFDNWGQGTLVTVSS
VL: B4 VL with Y30S, I31S, D32Y, K53R, G91S, F93T, L94H, Q96Y
notes: human IgG1
B6: MOR021800 (antibody, human IgG1, lambda, V domains shown)
VH: QVQLVQSGAEVKKPGESLKISCKGSGYSFSTYWISWVRQMPGKGLEWMGIIDPSNSDTRYSPSFQGQVTISADKSISTAYLQWSSLKASDTAMYYCARVYGYVYMDVWGQGTLVTVSS
VL: DIELTQPPSVSVSPGQTASITCSGDNLGKKYAYWYQQKPGQAPVLVIYDKTKRPSGIPERFSGSNSGNTATLTISGTQAEDEADYYCASYDWYSSSYVFGGGTKLTVLG
notes: human IgG1

What follows are binders tested against T1, Human ANGPTL4(26-406)-FLAG-His6-Avi (assay: SET assay (solution equilibrium titration, MSD), IgG).
Method: SET assays were performed as follows. In a 96-well polypropylene plate, a constant concentration of ANGPTL4 antibody was mixed with different concentrations of non-biotinylated human, cyno, mouse, or rat full-length ANPGLT4 protein, or human ANGPTL4 N-terminal domain protein (5-fold serial dilution) and incubated at 22° C. for 14 hours with constant shaking (300 rpm). On a pre-blocked 384-well streptavidin-coated Meso Scale Discovery (MSD) plate biotinylated ANGPTL4 (full-length human, cyno, mouse, or rat ANGPTL4, or human ANGPTL4 N-terminal domain) protein (1 nM, 15 μL per well) was immobilized and washed thereafter.
The equilibrium binding reactions (15 μL per well) were applied to the MSD plate with immobilized ANGPTL4 and incubated for 20 min at 22° C. The unbound material was removed by washing the plate 3 times with wash buffer, and the captured antibody was detected by adding Sulfo-tagged goat anti-human IgG (Meso Scale Discovery). After washing MSD read buffer T was added and the plate was developed using a Sector Imager 6000 (Meso Scale Discovery). The data were transferred to Microsoft Excel for analysis and plotted using GraphPad Prism v6. The KD values were determined by fitting the data to the following equation: […]
where Bₘₐₓ is the signal when no ANGPTL4 protein is present in solution, CAb is the constant concentration of ANGPTL4 antibody in solution, CAg is the concentration of ANGPTL4 in solution, and KD is the equilibrium dissociation constant.

| Kd [pM] | Binder |
| --- | --- |
| 189 | B1 |
| 36 | B2 |
| 107 | B3 |
| 9 | B4 |
| 26 | B5 |
| 17 | B6 |

What follows are binders tested against T1, Human ANGPTL4(26-406)-FLAG-His6-Avi (assay: cell-based or functional assay).

| EC50 (read off the curve) [1(D] [pM] | Binder |
| --- | --- |
| ~500 | B6 |

Molecular target: T1, Human ANGPTL4(26-406)-FLAG-His6-Avi
Experiment: cell-based or functional assay
Remark: another data set of the same source

| Reversal of human ANGPTL4 inhibition of human LPL EC50 [pM] | Binder |
| --- | --- |
| 12000 | B2 |
| 1000 | B4 |
| 4000 | B5 |
| 1000 | B6 |

Each binder was assayed against T2, Human ANGPTL3(17-460)-FLAG-His-Avi (assay: direct ELISA on streptavidin-coated MSD plate: biotinylated antigen immobilised at 1 nM, antibody at 1 nM, detection with Sulfo-tagged goat anti-human IgG).
Method: Direct ELISA assays were conducted to characterize antibody binding specificity of selected antibodies of the invention. The assay was performed as follows. A 384-well streptavidin-coated Meso Scale Discovery (MSD) plate was blocked by incubating the plate with 50 μL Blocking Buffer (PBS, pH 7.4, 5% w/v bovine serum albumin) per well at 22° C. for 1 hour with constant shaking (600 rpm). The blocked MSD plate was then washed 3 times with Wash Buffer (PBS, pH 7.4 and 0.05% v/v Tween-20) using a plate washer (BioTek). Following washing, biotinylated human ANGPTL4 proteins diluted in Assay Buffer (PBS, pH 7.4 without CaCl₂ or MgCl₂, 0.5% w/v fatty acid-free bovine serum albumin and 0.02% v/v Tween-20) were immobilized on the surface by incubation at 1 nM concentration (15 μL per well) at 22° C. for one hour: full length human ANGPTL4 (hANGPTL4), human ANGPTL4 coiled-coil domain (hANGPTL4-CCD) and full length human ANGPTL3 (hANGPTL3). The plate was then washed 3 times as described earlier. Antibody diluted to 1 nM concentration in Assay Buffer was then applied to the MSD plate […], and the plate was incubated for 1 hour at 22° C. with constant shaking (600 rpm). Bound antibodies were detected by adding 15 μL per well of a 1:500 dilution of Sulfo-tagged goat anti-human IgG. The plate was then incubated for one hour with constant shaking (600 rpm). The plate was washed 3 times, and then 15 μL/well of 1×MSD read buffer T was added and the plate was developed using a Sector Imager 6000 (Meso Scale Discovery). The data were transferred to Microsoft Excel for analysis and plotted using GraphPad Prism v6. […] An ANGPTL3-specific reference antibody was used as a positive control for the ANGPTL3 binding assay (FIG. 2).

| binding result | Binder |
| --- | --- |
| no binding (tested: 1 nM) | B2 |
| no binding (tested: 1 nM) | B4 |
| no binding (tested: 1 nM) | B5 |
| no binding (tested: 1 nM) | B6 |

Molecular target: T1, Human ANGPTL4(26-406)-FLAG-His6-Avi
Experiment: cell-based or functional assay
Remark: another data set of the same source

| Reversal of human ANGPTL4 inhibition of human LPL EC50 [pM] | Binder |
| --- | --- |
| 11000 | B1 |
| 4000 | B3 |

What follows are binders tested against T1, Human ANGPTL4(26-406)-FLAG-His6-Avi (assay: ForteBio Octet, biotinylated antigen on streptavidin sensor, antibody in solution).
Method: Dissociation constants (KD) were determined for selected antibodies of the invention by using an Octet (ForteBio) kinetic binding assay. ForteBio 10× Kinetics Buffer (ForteBio, catalog number 18-5032) was diluted 10-fold with DPBS (Life Technologies, catalog number 14190-136), and the resulting solution was added (0.2 ml per well) to a 96-well plate (Greiner, catalog number 65520). Streptavidin sensors (ForteBio, catalog number 18-5020) were immersed in the solution and equilibrated for at least 10 min at room temperature. In a second 96-well plate (Greiner, catalog number 65520), sensors were washed in 1× Kinetics buffer, and then immersed in 200 ul of 25 nM biotinylated human ANGPTL4 or a biotinylated reference protein (for background substraction) for 1000 sec […] at room temperature. The sensors were then washed in 1× Kinetics buffer for 120 sec, and immersed in 200 ul of ANGPTL4 antibody diluted in 1× Kinetics buffer at various concentrations (serial 2-fold dilutions ranging from 25 nM to 0.4 nM), and antibody association was monitored for 480 seconds. The sensors were then transferred to a well containing 200 ul 1× Kinetics buffer, and antibody dissociation was monitored for 1200 seconds. Background-corrected association and dissociation curves were globally fitted by Octet Software (ForteBio) to generate association (kₒₙ) and dissociation (koff) rate constants, which in turn were used to calculate equilibrium dissociation constants (KD).

| Kd [pM] | koff [s⁻¹] | kon [M⁻¹ s⁻¹] | Binder |
| --- | --- | --- | --- |
| 304 | 7.4e-05 | 240000 | B2 |
| 47 | 2.5e-05 | 530000 | B4 |
| 69 | 1.5e-05 | 210000 | B5 |
| 134 | 5.6e-05 | 420000 | B6 |

Molecular target: T1, Human ANGPTL4(26-406)-FLAG-His6-Avi
Experiment: cell-based or functional assay
Remark: another data set of the same source

| EC50 (read off the curve) [1(E] [pM] | EC50 (read off the curve) [1(F] [pM] | Binder |
| --- | --- | --- |
| ~500 | – | B4 |
| – | ~1000 | B5 |
